Changes are numbered by the printed parent chain.
B1: A022600135 (protein)
chain: DVQLVESGGGVVQPGGSLRLSCVASGYVHKINFYGWYRQAPGKEREKVAHISIGDQTDYADSAKGRFTISRDESKNTVYLQMNSLRPEDTALYYCRALSRIWPYDYWGQGTLVTVSSGGGGSEVQLVESGGGLVQPGGSLRLSCVASGSIFRSVFSSSTMEWYRQPPGKKRELVARIAPGDGTNYGALYADSVKGRFTISRDDAKKTVDLQMNSLKPEDTGVYFCASGVAWGQGTLVTVSSGGGGSGGGSEVQLVESGGGLVQPGGSLRLSCVASGFTFSSFAMTWVRRPPGKGLEWVATITNGGVTSYRDSVKGRFTISRDNAKNTLYLEMTSLNPEDTAVYICANARRTGPRAPTDIGSYRGQGTLVTVSSGGGGSGGGGSGGGGSGGGGSGGGGSGGGGSGGGGSEVQLVESGGGVVQPGGSLRLSCAASGFTFRSFGMSWVRQAPGKGPEWVSSISGSGSDTLYADSVKGRFTISRDNSKNTLYLQMNSLRPEDTALYYCTIGGSLSRSSQGTLVTVSSA
B2: A022600134 (protein)
chain: DVQLVESGGGVVQPGGSLRLSCVASGYVHKINFYGWYRQAPGKEREKVAHISIGDQTDYADSAKGRFTISRDESKNTVYLQMNSLRPEDTALYYCRALSRIWPYDYWGQGTLVTVSSGGGGSEVQLVESGGGLVQPGGSLRLSCVASGSIFRSVFSSSTMEWYRQPPGKKRELVARIAPGDGTNYGALYADSVKGRFTISRDDAKKTVDLQMNSLKPEDTGVYFCASGVAWGQGTLVTVSSGGGGSGGGGSGGGGSGGGGSEVQLVESGGGLVQPGGSLRLSCVASGFTFSSFAMTWVRRPPGKGLEWVATITNGGVTSYRDSVKGRFTISRDNAKNTLYLEMTSLNPEDTAVYICANARRTGPRAPTDIGSYRGQGTLVTVSSGGGGSGGGGSGGGGSGGGGSGGGGSGGGGSGGGGSEVQLVESGGGVVQPGGSLRLSCAASGFTFRSFGMSWVRQAPGKGPEWVSSISGSGSDTLYADSVKGRFTISRDNSKNTLYLQMNSLRPEDTALYYCTIGGSLSRSSQGTLVTVSSA
B3: A022600168 (protein)
chain: DVQLVESGGGVVQPGGSLRLSCVASGYVHKINFYGWYRQAPGKEREKVAHISIGDQTDYADSAKGRFTISRDESKNTVYLQMNSLRPEDTAAYYCRALSRIWPYDYWGQGTLVTVSSGGGGSEVQLVESGGGLVQPGGSLRLSCVASGFTFSSFAMTWVRRPPGKGLEWVATITNGGVTSYRDSVKGRFTISRDNAKNTLYLEMTSLNPEDTAVYICANARRTGPRAPTDIGSYRGQGTLVTVSSGGGGSGGGGSGGGGSGGGGSGGGGSGGGGSGGGGSEVQLVESGGGLVQPGGSLRLSCVASGSIFRSVFSSSTMEWYRQPPGKKRELVARIAPGDGTNYGALYADSVKGRFTISRDDAKKTVDLQMNSLKPEDTGVYFCASGVAWGQGTLVTVSSGGGGSGGGGSGGGGSGGGGSGGGGSGGGGSGGGGSEVQLVESGGGVVQPGGSLRLSCAASGFTFRSFGMSWVRQAPGKGPEWVSSISGSGSDTLYADSVKGRFTISRDNSKNTLYLQMNSLRPEDTALYYCTIGGSLSRSSQGTLVTVSSA
B4: A022600167 (protein)
chain: DVQLVESGGGVVQPGGSLRLSCVASGYVHKINFYGWYRQAPGKEREKVAHISIGDQTDYADSAKGRFTISRDESKNTVYLQMNSLRPEDTAAYYCRALSRIWPYDYWGQGTLVTVSSGGGGSEVQLVESGGGLVQPGGSLRLSCVASGFTFSSFAMTWVRRPPGKGLEWVATITNGGVTSYRDSVKGRFTISRDNAKNTLYLEMTSLNPEDTAVYICANARRTGPRAPTDIGSYRGQGTLVTVSSGGGGSGGGGSGGGGSGGGGSGGGGSGGGGSGGGGSEVQLVESGGGVVQPGGSLRLSCAASGFTFRSFGMSWVRQAPGKGPEWVSSISGSGSDTLYADSVKGRFTISRDNSKNTLYLQMNSLRPEDTALYYCTIGGSLSRSSQGTLVTVSSA
B5: A022600132 (protein)
chain: DVQLVESGGGVVQPGGSLRLSCVASGYVHKINFYGWYRQAPGKEREKVAHISIGDQTDYADSAKGRFTISRDESKNTVYLQMNSLRPEDTALYYCRALSRIWPYDYWGQGTLVTVSSGGGGSEVQLVESGGGLVQPGGSLRLSCVASGFTFSSFAMTWVRRPPGKGLEWVATITNGGVTSYRDSVKGRFTISRDNAKNTLYLEMTSLNPEDTAVYICANARRTGPRAPTDIGSYRGQGTLVTVSSGGGGSGGGSEVQLVESGGGLVQPGGSLRLSCVASGSIFRSVFSSSTMEWYRQPPGKKRELVARIAPGDGTNYGALYADSVKGRFTISRDDAKKTVDLQMNSLKPEDTGVYFCASGVAWGQGTLVTVSSGGGGSGGGGSGGGGSGGGGSGGGGSGGGGSGGGGSEVQLVESGGGVVQPGGSLRLSCAASGFTFRSFGMSWVRQAPGKGPEWVSSISGSGSDTLYADSVKGRFTISRDNSKNTLYLQMNSLRPEDTALYYCTIGGSLSRSSQGTLVTVSSA
B6: A022600175 (protein)
chain: B5 chain with L92A
B7: A022600133 (protein)
chain: DVQLVESGGGVVQPGGSLRLSCVASGYVHKINFYGWYRQAPGKEREKVAHISIGDQTDYADSAKGRFTISRDESKNTVYLQMNSLRPEDTALYYCRALSRIWPYDYWGQGTLVTVSSGGGGSEVQLVESGGGLVQPGGSLRLSCVASGSIFRSVFSSSTMEWYRQPPGKKRELVARIAPGDGTNYGALYADSVKGRFTISRDDAKKTVDLQMNSLKPEDTGVYFCASGVAWGQGTLVTVSSGGGGSGGGGSGGGGSGGGGSGGGGSGGGGSGGGGSEVQLVESGGGLVQPGGSLRLSCVASGFTFSSFAMTWVRRPPGKGLEWVATITNGGVTSYRDSVKGRFTISRDNAKNTLYLEMTSLNPEDTAVYICANARRTGPRAPTDIGSYRGQGTLVTVSSGGGGSGGGGSGGGGSGGGGSGGGGSGGGGSGGGGSEVQLVESGGGVVQPGGSLRLSCAASGFTFRSFGMSWVRQAPGKGPEWVSSISGSGSDTLYADSVKGRFTISRDNSKNTLYLQMNSLRPEDTALYYCTIGGSLSRSSQGTLVTVSSA
B8: A022600169 (protein)
chain: DVQLVESGGGLVQPGGSLRLSCVASGFTFSSFAMTWVRRPPGKGLEWVATITNGGVTSYRDSVKGRFTISRDNAKNTLYLEMTSLNPEDTAVYICANARRTGPRAPTDIGSYRGQGTLVTVSSGGGGSEVQLVESGGGVVQPGGSLRLSCVASGYVHKINFYGWYRQAPGKEREKVAHISIGDQTDYADSAKGRFTISRDESKNTVYLQMNSLRPEDTAAYYCRALSRIWPYDYWGQGTLVTVSSGGGGSEVQLVESGGGLVQPGGSLRLSCVASGSIFRSVFSSSTMEWYRQPPGKKRELVARIAPGDGTNYGALYADSVKGRFTISRDDAKKTVDLQMNSLKPEDTGVYFCASGVAWGQGTLVTVSSGGGGSGGGGSGGGGSGGGGSGGGGSGGGGSGGGGSEVQLVESGGGVVQPGGSLRLSCAASGFTFRSFGMSWVRQAPGKGPEWVSSISGSGSDTLYADSVKGRFTISRDNSKNTLYLQMNSLRPEDTALYYCTIGGSLSRSSQGTLVTVSSA
B9: A022600174 (protein)
chain: DVQLVESGGGVVQPGGSLRLSCVASGYVHKINFYGWYRQAPGKEREKVAHISIGDQTDYADSAKGRFTISRDESKNTVYLQMNSLRPEDTAAYYCRALSRIWPYDYWGQGTLVTVSSGGGGSEVQLVESGGGLVQPGGSLRLSCVASGFTFSSFAMTWVRRPPGKGLEWVATITNGGVTSYRDSVKGRFTISRDNAKNTLYLEMTSLNPEDTAVYICANARRTGPRAPTDIGSYRGQGTLVTVSSGGGGSGGGSEVQLVESGGGLVQPGGSLRLSCVASGSIFRSVFSSSTMEWYRQPPGKKRELVARIAPGDGTNYGALYADSVKGRFTISRDDAKKTVDLQMNSLKPEDTGVYFCASGVAWGQGTLVTVSSGGGGSGGGSEVQLVESGGGVVQPGGSLRLSCAASGFTFRSFGMSWVRQAPGKGPEWVSSISGSGSDTLYADSVKGRFTISRDNSKNTLYLQMNSLRPEDTALYYCTIGGSLSRSSQGTLVTVSSA

target: human GPC3 on cells (human) (UniProt P51654); assay: cell-based or functional assay

Row | IC50 (M), Incucyte human TDC HepG2-Nuclight green assay, E:T 15:1 (Step 2) [M] | HepG2 on Incucyte IC50 (M), human TDC, E:T 15:1, 60 h [M] | Huh7 on xCELLigence IC50 (M), human TDC, E:T 15:1, 60 h [M] | IC50 (M), xCELLigence human TDC assay on Hep-G2, E:T 15:1, 60 h [M] | IC50 (M), xCELLigence human TDC assay on Huh-7, E:T 15:1, 60 h [M] | IC50 (M), xCELLigence human TDC assay on NCI-H661, E:T 15:1, 75 h [M] | Binder | Max % Killing, Incucyte human TDC HepG2-Nuclight green assay (Step 2) [%] | HepG2 on Incucyte Max % killing, 60 h [%] | Huh7 on xCELLigence Max % killing, 60 h [%]
1 | 6.11e-10 |  |  |  |  |  | B1 | 91 |  | 
2 | 5.28e-10 |  |  |  |  |  | B2 | 92 |  | 
3 |  | 3.67e-10 | 1.98e-10 | 7.3e-11 | 2.4e-11 | 1.4e-10 | B3 |  | 103 | 107
4 |  | 1.92e-09 | 8.61e-09 | 9.2e-11 | 4.7e-10 | 1.8e-10 | B4 |  | 98 | 91
5 | 7.02e-10 | 6.83e-10 | 2.9e-10 |  |  |  | B5 | 91 | 83 | 95
6 |  | 5.27e-10 | 5.86e-11 |  |  |  | B6 |  | 96 | 99
7 | 4.08e-10 |  |  |  |  |  | B7 | 92 |  | 
8 |  | 6.41e-10 | 1.02e-09 |  |  |  | B8 |  | 81 | 61
9 |  | 6.73e-10 | 6.26e-11 |  |  |  | B9 |  | 96 | 99

From patent US20240092919A1
